Results taken from patent US20100311669A1.
Positions of bridges follow the written chain, without caps; N, C: chain ends. No end group written: not given here.

Target: Recombinant purified HER2 receptor composed of the ectodomain of HER2 fused to the Fc of human IgG (human) (UniProt P04626)
Experiment: SPR (Biacore 3000), HER2-Fc immobilized, peptide as analyte, 25 C

Kd: 760 nM
koff: 0.000701 s⁻¹
kon: 922 M⁻¹ s⁻¹
B1: AHNP analogue 8, …-OH (cyclic) (peptide)
peptide: FCGDGFYACYMDV-OH
modifications: disulfide 2-9
